Measured values: patent publication US20260242478A1 (published 2026)
Where no end group is shown, it is not given here.

Experiments:
[1] = target: T1, Anti-CD28 Fab (SEQ ID NOs: 696, 697); experiment: phage ELISA on plate-bound anti-CD28 Fab, wells pre-incubated with CD28 antigen as competitor
T1 construct: Biotinylated and captured on neutravidin coated plates in the phage ELISA
T1 sequence (VH, as listed by the source, chain 1 of 2): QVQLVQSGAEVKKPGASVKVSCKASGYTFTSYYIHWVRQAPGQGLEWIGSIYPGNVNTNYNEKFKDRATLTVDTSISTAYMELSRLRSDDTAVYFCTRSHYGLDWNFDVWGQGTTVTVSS
T1 sequence (VL, as listed by the source, chain 2 of 2): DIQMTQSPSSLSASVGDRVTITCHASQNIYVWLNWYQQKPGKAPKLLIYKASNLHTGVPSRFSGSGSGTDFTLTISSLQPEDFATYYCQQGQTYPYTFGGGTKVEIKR
Protocol: (§1) After panning, phage infected bacteria were plated out and colonies picked into 96 well blocks. Clonal phage was then amplified and separated from bacterial cells via centrifugation.
(§2) Clonal phage were harvested as crude supematants and screened via standard ELISAs. […] Prior to the addition of clonal phage, wells were incubated with blocking buffer and CD28 antigen or blocking buffer alone. Without washing or aspirating, clonal phage supematants were then added to the wells and incubated for a short time. Wells were then washed followed by detection of bound phage using a horse radish conjugated anti-M13 antibody. Clonal phage of interest were then sent for sequence analysis.

[2] = target: T1, Anti-CD28 Fab (SEQ ID NOs: 696, 697); experiment: phage ELISA; biotinylated anti-CD28 Fab on neutravidin plate, clonal phage supernatant, anti-M13 HRP detection;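 note: crude supernatants of single phage clones picked after panning were screened for binding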
[3] = target: T2, Anti-CD28 Fab (SEQ ID NOs: 696, 697); experiment: phage binding ELISA on captured anti-CD28 Fab; competitor: CD28 antigen pre-incubated in the wells
T2 construct: In the phage ELISA the Fab was biotinylated and captured on neutravidin coated plates
T2 sequence (VH, as listed by the source, chain 1 of 2): as the sequence (VH, as listed by the source, chain 1 of 2) above
T2 sequence (VL, as listed by the source, chain 2 of 2): as the sequence (VL, as listed by the source, chain 2 of 2) above
Protocol: as §1, §2

[4] = target: T2, Anti-CD28 Fab (SEQ ID NOs: 696, 697); experiment: phage binding ELISA; biotinylated anti-CD28 Fab on neutravidin plate, bound phage detected with anti-M13-HRP
Protocol: as §1, §2

[5] = target: Anti-CD28 Fab (SEQ ID NOs: 696, 697); experiment: phage binding ELISA; biotinylated anti-CD28 Fab on neutravidin plate, clonal phage supernatant, anti-M13 HRP detection
Target sequence in this assay (VH, as listed by the source, chain 1 of 2): as the sequence (VH, as listed by the source, chain 1 of 2) above
Target sequence in this assay (VL, as listed by the source, chain 2 of 2): as the sequence (VL, as listed by the source, chain 2 of 2) above
Protocol: as §1, §2

[6] = target: Anti-CD28 Fab (SEQ ID NOs: 696, 697); experiment: phage binding ELISA; captured anti-CD28 Fab pre-incubated with CD28 antigen as competitor, anti-M13 HRP detection
Target sequence in this assay (VH, as listed by the source, chain 1 of 2): as the sequence (VH, as listed by the source, chain 1 of 2) above
Target sequence in this assay (VL, as listed by the source, chain 2 of 2): as the sequence (VL, as listed by the source, chain 2 of 2) above

| Binder | Anti-CD28 Fab signal in the presence of CD28 (phage binding ELISA) [1] | Anti-CD28 Fab signal (phage binding ELISA) [2] | Anti-CD28 Fab signal in the presence of CD28 (phage binding ELISA) [3] | Anti-CD28 Fab signal (phage binding ELISA) [4] | other results |
| --- | --- | --- | --- | --- | --- |
| YCDGHAPEYVMKCL (Clonal phage of the Peptide-87 library) [Phage-682] | 0.1 | 2.05 |  |  |  |
| YCDGHLIEYMEKCL [Phage-688] |  |  | 0.06 | 2.04 |  |
| YCEGHAPQHMDKCL [Phage-690] |  |  | 0.08 | 2.04 |  |
| YCDGHLPAYMAKCL (Clonal phage of the Peptide-87 library) [Phage-672] | 0.12 | 2.06 |  |  |  |
| YCEGHAPEYMMKCI (Clonal phage of the Peptide-87 library) [Phage-674] | 0.06 | 2.06 |  |  |  |
| YCEGHSPEYMTKCL (cysteine pairing not given here; also: displayed on phage by fusion to pIII, pIII and linker sequence not given here) [Phage-701] |  |  |  |  | Anti-CD28 Fab (SEQ ID NOs: 696, 697) signal [5]: 2.02; Anti-CD28 Fab signal in the presence of CD28 [6]: 0.08 |
| YCEGHSIQYMAKCL (cysteine pairing not given here; also: displayed on phage by fusion to pIII, pIII and linker sequence not given here) [Phage-702] |  |  |  |  | Anti-CD28 Fab (SEQ ID NOs: 696, 697) signal [5]: 2.02; Anti-CD28 Fab signal in the presence of CD28 [6]: 0.06 |
| YCDGHLPEYQMKCL [Phage-686] |  |  | 0.08 | 2.05 |  |
| YCEGHSDEYMLKCL (Clonal phage of the Peptide-87 library) [Phage-673] | 0.07 | 2.06 |  |  |  |
| YCEGHAPEYMYKCL [Phage-685] |  |  | 0.07 | 2.05 |  |
| YCDGHSPMYIGKCL (cysteine pairing not given here; also: displayed on phage by fusion to pIII, pIII and linker sequence not given here) [Phage-697] |  |  |  |  | Anti-CD28 Fab (SEQ ID NOs: 696, 697) signal [5]: 2.03; Anti-CD28 Fab signal in the presence of CD28 [6]: 0.07 |
| YCLGHAPQYIQKCL [Phage-693] |  |  | 0.14 | 2.04 |  |
| YCDGHEAQYMSKCL (cysteine pairing not given here; also: displayed on phage by fusion to pIII, pIII and linker sequence not given here) [Phage-706] |  |  |  |  | Anti-CD28 Fab (SEQ ID NOs: 696, 697) signal [5]: 2.01; Anti-CD28 Fab signal in the presence of CD28 [6]: 0.09 |
| YCSGHLPEYMSKCL [Phage-695] |  |  | 0.09 | 2.03 |  |
| YCDGHSAQYMHKCL [Phage-684] |  |  | 0.06 | 2.05 |  |
| YCDGHAPEYMEKCL (cysteine pairing not given here; also: displayed on phage by fusion to pIII, pIII and linker sequence not given here) [Phage-704] |  |  |  |  | Anti-CD28 Fab (SEQ ID NOs: 696, 697) signal [5]: 2.01; Anti-CD28 Fab signal in the presence of CD28 [6]: 0.09 |
| YCDGHMGVYYWKCL (cysteine pairing not given here; also: displayed on phage by fusion to pIII, pIII and linker sequence not given here) [Phage-705] |  |  |  |  | Anti-CD28 Fab (SEQ ID NOs: 696, 697) signal [5]: 2.01; Anti-CD28 Fab signal in the presence of CD28 [6]: 0.09 |
| YCDGHVGEYMQKCL [Phage-683] |  |  | 0.08 | 2.05 |  |
| YCEGHAREHMAKCL (cysteine pairing not given here; also: displayed on phage by fusion to pIII, pIII and linker sequence not given here) [Phage-700] |  |  |  |  | Anti-CD28 Fab (SEQ ID NOs: 696, 697) signal [5]: 2.02; Anti-CD28 Fab signal in the presence of CD28 [6]: 0.08 |

| Binder | Anti-CD28 Fab signal in the presence of CD28 (phage binding ELISA) [1] | Anti-CD28 Fab signal (phage binding ELISA) [2] | Anti-CD28 Fab signal in the presence of CD28 (phage binding ELISA) [3] | Anti-CD28 Fab signal (phage binding ELISA) [4] | other results |
| --- | --- | --- | --- | --- | --- |
| YCQGHMPEYMDKCL (Clonal phage of the Peptide-87 library) [Phage-681] | 0.07 | 2.05 |  |  |  |
| YCEGHSPQYMSKCL [Phage-691] |  |  | 0.07 | 2.04 |  |
| YCDGHSSEYMWKCL [Phage-694] |  |  | 0.06 | 2.03 |  |
| YCEGHLPIYMDKCL (Clonal phage of the Peptide-87 library) [Phage-678] | 0.08 | 2.06 |  |  |  |
| YCEGHSAEYMNKCL (Clonal phage of the Peptide-87 library) [Phage-676] | 0.07 | 2.06 |  |  |  |
| YCDGHELRYMAKCL (Clonal phage of the Peptide-87 library) [Phage-671] | 0.07 | 2.07 |  |  |  |
| YCDGHFREYMQKCL [Phage-692] |  |  | 0.06 | 2.04 |  |
| YCAGHIEEYMWKCL (Clonal phage of the Peptide-87 library) [Phage-680] | 0.06 | 2.05 |  |  |  |
| YCDGHAIEYMQKCL (Clonal phage of the Peptide-87 library) [Phage-679] | 0.07 | 2.05 |  |  |  |
| YCAGHLPEYMMKCL (cysteine pairing not given here; also: displayed on phage by fusion to pIII, pIII and linker sequence not given here) [Phage-698] |  |  |  |  | Anti-CD28 Fab (SEQ ID NOs: 696, 697) signal [5]: 2.03; Anti-CD28 Fab signal in the presence of CD28 [6]: 0.11 |
| YCEGHRPEYMQKCL (cysteine pairing not given here; also: displayed on phage by fusion to pIII, pIII and linker sequence not given here) [Phage-699] |  |  |  |  | Anti-CD28 Fab (SEQ ID NOs: 696, 697) signal [5]: 2.03; Anti-CD28 Fab signal in the presence of CD28 [6]: 0.11 |
| YCEGHAPQYIAKCL (cysteine pairing not given here; also: displayed on phage by fusion to pIII, pIII and linker sequence not given here) [Phage-696] |  |  |  |  | Anti-CD28 Fab (SEQ ID NOs: 696, 697) signal [5]: 2.03; Anti-CD28 Fab signal in the presence of CD28 [6]: 0.08 |
| YCEGHSLEYMGKCL (cysteine pairing not given here; also: displayed on phage by fusion to pIII, pIII and linker sequence not given here) [Phage-703] |  |  |  |  | Anti-CD28 Fab (SEQ ID NOs: 696, 697) signal [5]: 2.02; Anti-CD28 Fab signal in the presence of CD28 [6]: 0.09 |
| YCDGHAPQYMGKCL (Clonal phage of the Peptide-87 library) [Phage-677] | 0.08 | 2.06 |  |  |  |
| YCEGHADIYMQKCL (Clonal phage of the Peptide-87 library) [Phage-675] | 0.07 | 2.06 |  |  |  |
| YCDGHASEYMMKCL [Phage-687] |  |  | 0.06 | 2.05 |  |
| YCEGHAPQYIQKCL (Clonal phage of the Peptide-87 library) [Phage-670] | 0.07 | 2.07 |  |  |  |
| YCEGHAIQYMSKCL [Phage-689] |  |  | 0.06 | 2.04 |  |
